Values belong to the molecule of their own block, whether it stands above or below them. Where a SMILES comes first, the peptide text is derived from it. The star is where a group is joined. HYNIC = NNc1ccc(C(=O)*)cn1
Tests used:
[1] = in vivo; conditions: male, BALB/c-nude, mouse, iv, 11.1 MBq, total radioactivity
Protocol: (§1) Five-week-old male BALB/c-nude mice were used for preparation of the xenograft tumor models. An A549 lung carcinoma-bearing model was established by subcutaneous injection of A549 cells at a concentration of 5 × 10^6 cells/mouse into the right front flank of the mice.
(§2) SPECT planar imaging was performed when the tumor volume was approximately 1 cm^3. The mice were anesthetized and placed in a supine position. Planar imaging was performed using a low-energy collimator at an energy peak of 140 keV at the indicated time after ^99mTc-labeled peptide (11.1 MBq, 150 μL) injection. The main imaging acquisition parameters were as follows: 128 × 128 matrix, window-width 20%, zoom 2.0, acquisition time 10 min. […] Then, 100,000 counts were acquired per image at each time indicated after the injection. For the blocking study, an excessive amount of HYNIC-peptide or EC-peptide (500 μg/mouse) was injected 30 min prior to radiolabeled peptide injection.

[2] = biological target: VEGFR-1 (Homo sapiens, UniProt P17948); assay: Co-immunoprecipitation of GST-peptide and VEGFR-1; type: binding; conditions: A549 cells, GST-peptide 80 or 185 nmol/L, 12 h, anti-GST or anti-VEGFR-1 antibody, Western blot
Sequence of VEGFR-1 (P17948 27-656 limits assumed): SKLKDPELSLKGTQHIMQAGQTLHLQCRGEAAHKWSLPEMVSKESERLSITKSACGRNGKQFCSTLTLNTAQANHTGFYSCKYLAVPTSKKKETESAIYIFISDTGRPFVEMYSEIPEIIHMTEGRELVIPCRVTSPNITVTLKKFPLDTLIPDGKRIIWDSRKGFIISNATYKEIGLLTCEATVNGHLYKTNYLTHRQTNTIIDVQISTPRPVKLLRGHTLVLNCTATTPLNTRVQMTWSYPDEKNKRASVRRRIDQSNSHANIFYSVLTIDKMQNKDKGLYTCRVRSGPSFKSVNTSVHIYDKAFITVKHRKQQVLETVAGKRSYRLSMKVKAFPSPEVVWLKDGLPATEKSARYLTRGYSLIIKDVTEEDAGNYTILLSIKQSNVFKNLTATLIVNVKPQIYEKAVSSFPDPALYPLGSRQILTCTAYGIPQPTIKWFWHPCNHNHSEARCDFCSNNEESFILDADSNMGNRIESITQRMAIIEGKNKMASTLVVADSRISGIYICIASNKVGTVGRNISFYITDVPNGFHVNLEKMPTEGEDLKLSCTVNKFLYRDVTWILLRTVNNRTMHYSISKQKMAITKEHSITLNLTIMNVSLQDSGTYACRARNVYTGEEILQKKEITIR
Protocol: GST-peptide was prepared and purified as previously described. Briefly, pGEX4T-1-peptide plasmid was obtained by peptide gene insertion into pGEX4T-1. Then, the plasmids were transfected into E. coli BL21 (DE3)-competent cells. Subsequently, GST-peptide fusion proteins were collected and purified by Glutathione Sepharose 4B. The obtained proteins were identified by protein electrophoresis.
A549 cells were seeded in 75 cm^2 bottles (1 × 10^4 counts/mL). After 24 h, GST-QKRKRKKSRKKH (80 nmol/L) or GST–RKRKRKKSRYIVLS (185 nmol/L) protein was added, respectively. After 12 h, the culture medium was removed and the cells were washed by PBS and then spalled with IP lysis buffer containing protease inhibitor (4 °C, 30 min). The protein concentration was determined with BCA methods. Protein (600 μg) from supernatant was used for immunoprecipitation (IP) assays with 1 μg anti-GST antibody or 1 μg anti-VEGFR-1 antibody in a reversed Co-IP experiment, while IgG served as the negative group. After washing 3× by TBST, IgG-HRP was added, shaking 2 h at RT, and last for enhanced chemiluminescence imaging.

[3] = system: A549 xenograft tumors; assay: Therapeutic evaluation of ^188Re-peptides on A549 tumors; type: in vivo, mice; conditions: 18.5 MBq i.v. at the first and seventh day
Protocol: Sixty mice were randomly separated into 6 groups once the tumor volumes reached approximately 0.1 cm^3: saline group, ^188ReO4 ^− group (18.5 MBq), non-labeled peptide group (4 μg per mouse) and ^188Re-labeled peptide group (18.5 MBq, 4 μg peptide per mouse) (n = 10). All drugs were administered i.v at the first and seventh day. Tumor size was determined weekly by measuring the length, width, and depth of the tumor using a caliper. Tumor volume was calculated as follows: tumor volume = (length × width × depth) × π/6. The mice were abandoned once dead or body weight loss was more than 20%.
At the end of the therapeutic period, mice were sacrificed, and the tumors were collected and fixed in 4% paraformaldehyde (PFA). Routine hematoxylin and eosin (H&E) staining and TdT-mediated dUTP nick-end labeling (TUNEL) staining were performed for necrosis and apoptosis analysis according to the manufacturer’s instructions.

[4] = system: A549 tumor-bearing nude mice; assay: SPECT planar imaging; conditions: intravenous administration, 2 hour
Protocol: as §1, §2

[5] = biological target: VEGFR (UniProt P17948 27-1338); assay: radioligand binding; receptor competition binding with 125I-VEGF165, peptide concentration varied; details in ref. 28
Sequence of VEGFR (P17948 27-1338): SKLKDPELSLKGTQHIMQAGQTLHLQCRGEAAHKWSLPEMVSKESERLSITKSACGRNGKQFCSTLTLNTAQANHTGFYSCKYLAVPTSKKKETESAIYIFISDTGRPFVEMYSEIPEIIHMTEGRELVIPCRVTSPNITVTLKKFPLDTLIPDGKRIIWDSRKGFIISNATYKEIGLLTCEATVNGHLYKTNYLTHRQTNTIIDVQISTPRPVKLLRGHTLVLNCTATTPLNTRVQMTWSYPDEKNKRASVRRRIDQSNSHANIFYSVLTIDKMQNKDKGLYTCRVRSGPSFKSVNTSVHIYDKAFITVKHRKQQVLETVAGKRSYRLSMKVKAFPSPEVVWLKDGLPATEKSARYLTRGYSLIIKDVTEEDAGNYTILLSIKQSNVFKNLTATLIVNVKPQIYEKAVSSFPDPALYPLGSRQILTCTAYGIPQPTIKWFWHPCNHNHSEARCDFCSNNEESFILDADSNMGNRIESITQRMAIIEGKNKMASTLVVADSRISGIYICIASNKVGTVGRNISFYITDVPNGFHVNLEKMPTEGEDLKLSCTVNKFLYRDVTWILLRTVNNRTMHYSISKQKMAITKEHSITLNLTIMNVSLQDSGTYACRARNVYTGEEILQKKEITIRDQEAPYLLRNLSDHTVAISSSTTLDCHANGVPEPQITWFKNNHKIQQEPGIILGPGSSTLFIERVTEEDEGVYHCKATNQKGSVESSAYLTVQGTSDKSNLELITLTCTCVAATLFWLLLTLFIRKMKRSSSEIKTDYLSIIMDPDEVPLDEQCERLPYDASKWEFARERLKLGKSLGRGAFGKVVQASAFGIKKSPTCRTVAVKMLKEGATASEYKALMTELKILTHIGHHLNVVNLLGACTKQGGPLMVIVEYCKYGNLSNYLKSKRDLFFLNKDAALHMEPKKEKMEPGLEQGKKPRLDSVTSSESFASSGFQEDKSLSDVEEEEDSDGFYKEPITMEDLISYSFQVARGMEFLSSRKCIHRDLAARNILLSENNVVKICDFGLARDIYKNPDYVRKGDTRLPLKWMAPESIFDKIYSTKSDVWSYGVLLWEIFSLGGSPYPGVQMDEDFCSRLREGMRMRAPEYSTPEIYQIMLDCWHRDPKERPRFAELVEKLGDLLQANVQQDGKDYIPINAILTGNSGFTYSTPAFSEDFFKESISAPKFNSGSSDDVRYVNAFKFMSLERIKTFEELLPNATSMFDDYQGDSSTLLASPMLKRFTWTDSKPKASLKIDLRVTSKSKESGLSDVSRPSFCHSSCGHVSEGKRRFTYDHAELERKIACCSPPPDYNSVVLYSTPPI

Molecule: N=C(N)NCCC[C@H](NC(=O)[C@H](CCCCN)NC(=O)[C@H](CCC(N)=O)NC(=O)c1ccc(NN)nc1)C(=O)N[C@@H](CCCCN)C(=O)N[C@@H](CCCNC(=N)N)C(=O)N[C@@H](CCCCN)C(=O)N[C@@H](CCCCN)C(=O)N[C@@H](CO)C(=O)N[C@@H](CCCNC(=N)N)C(=O)N[C@@H](CCCCN)C(=O)N[C@@H](CCCCN)C(=O)N[C@@H](Cc1c[nH]cn1)C(=O)O (99mTc complex, metal not drawn) [^99mTc-HYNIC-QKRKRKKSRKKH] ({HYNIC}-QKRKRKKSRKKH-OH)
tissue to tissue ratio at 0.5 h [1]: 1.53
tissue to tissue ratio at 1 h [1]: 3.42
tissue to tissue ratio at 2 h [1]: 4.31
tissue to tissue ratio at 4 h [1]: 2.62

binding to VEGFR-1 by Co-IP and reversed Co-IP [2]: could bind to VEGFR-1
Molecule: GST-QKRKRKKSRKKH [GST-peptide fusion protein from E. coli BL21 (DE3)]

Molecule: CC[C@H](C)[C@H](NC(=O)[C@H](Cc1ccc(O)cc1)NC(=O)[C@H](CCCNC(=N)N)NC(=O)[C@H](CO)NC(=O)[C@H](CCCCN)NC(=O)[C@H](CCCCN)NC(=O)[C@H](CCCNC(=N)N)NC(=O)[C@H](CCCCN)NC(=O)[C@H](CCCNC(=N)N)NC(=O)[C@H](CCCCN)NC(=O)[C@H](CCCNC(=N)N)NC(=O)c1ccc(NN)nc1)C(=O)N[C@H](C(=O)N[C@@H](CC(C)C)C(=O)N[C@@H](CO)C(=O)O)C(C)C (99mTc complex, metal not drawn) [^99mTc-HYNIC-RKRKRKKSRYIVLS] ({HYNIC}-RKRKRKKSRYIVLS-OH)
tissue to tissue ratio at 0.5 h [1]: 4.05
tissue to tissue ratio at 1 h [1]: 4.02
tissue to tissue ratio at 2 h [1]: 3.76
tissue to tissue ratio at 4 h [1]: 2.86

binding to VEGFR-1 by Co-IP and reversed Co-IP [2]: could combined to VEGFR-1
Molecule: GST-RKRKRKKSRYIVLS [GST-peptide fusion protein from E. coli BL21 (DE3)]

Molecule: [Na+].[O]=[188Re](=[O])(=[O])[O-] [Na^188ReO4]
A549 tumor volume growth ([3]; compared with the saline group, n = 10): inhibited the tumor volume growth
apoptosis in non-necrotic tumor areas (TUNEL staining) ([3]; end of the therapeutic period): no significant difference in necrosis or apoptosis
necrotic regions in tumor tissue (HE staining) ([3]; end of the therapeutic period): no significant difference in necrosis or apoptosis
survival of A549 tumor-bearing nude mice ([3]; n = 10): did not improve the survival duration
distribution of radioactivity on SPECT planar imaging [4]: Large amount of radioactivity was observed in thyroids and stomach

IC50 [5]: 185 nM
B1: RKRKRKKSRYIVLS (peptide)
peptide: RKRKRKKSRYIVLS
notes: core motif RKRKKSR kept; also called non-labeled peptide; source: synthetic peptide (ChinaPeptides Co., Ltd., SPPS, HPLC purified)

IC50 [5]: 79.8 nM
B2: QKRKRKKSRKKH (peptide)
peptide: QKRKRKKSRKKH
notes: as for B1

IC50 [5]: 464 nM
B3: VEGF_(125-136) (peptide)
peptide: QKRKRKKSRYKS
notes: source: synthetic peptide (ChinaPeptides Co., Ltd., SPPS, HPLC purified)
